In assay [1] the target is Syntaxin1 (rat) (UniProt P32851).
In assay [2] the target is full-length VAMP2 (mouse His6-SUMO-VAMP2, residues 1-116) (mouse) (UniProt P63044).
Sequence of full-length VAMP2 (mouse His6-SUMO-VAMP2, residues 1-116) (mouse) (P63044 whole entry, the tested form may be a part): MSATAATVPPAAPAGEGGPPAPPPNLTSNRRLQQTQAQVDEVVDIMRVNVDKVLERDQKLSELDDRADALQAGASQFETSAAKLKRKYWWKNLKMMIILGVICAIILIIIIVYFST

Sequence of Syntaxin1 (rat) (P32851 whole entry, the tested form may be a part): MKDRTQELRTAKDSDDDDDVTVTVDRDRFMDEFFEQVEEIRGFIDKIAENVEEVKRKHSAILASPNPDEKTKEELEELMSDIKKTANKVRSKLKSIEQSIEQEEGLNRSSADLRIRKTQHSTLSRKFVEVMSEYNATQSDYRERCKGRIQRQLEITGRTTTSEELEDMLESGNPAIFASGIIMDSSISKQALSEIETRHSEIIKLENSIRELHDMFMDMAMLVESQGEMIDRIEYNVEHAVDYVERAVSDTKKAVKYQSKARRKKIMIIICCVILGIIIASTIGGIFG

As to “Munc13 N1128A/F1131A (from UniProt Q62768 529-1407; Q62768 1453-1735) (domain or fragment)”, the single-vesicle fusion assay with 500 nM DHG: fraction of immobile clamped vesicles that fused upon 100 µM Ca2+ (wild type ~90%) in assay [1] came to 20%. In turn, “Munc13 D1358K (from UniProt Q62768 529-1407; Q62768 1453-1735) (domain or fragment)” showed a single-vesicle fusion assay with 500 nM DHG: fraction of immobile clamped vesicles that fused upon 100 µM Ca2+ (wild type ~90%) in assay [2] of 20%.

These data come from publication PMC10450444.
